These results are taken from publication PMC9241938.

Data set [1] deals with cyAbrB1 (Sll0359), N-terminally 6*His-tagged recombinant protein (Synechocystis sp. PCC 6803). Nature of the data set: native gel or EMSA; native SDS-PAGE (NSDS-PAGE) of the purified recombinant protein; native glycine polyacrylamide gel (15%, SDS omitted), running buffer 50 mM Tris-HCl, 200 mM glycine, 0.0375% SDS, pH 7.3, 4°C.
Data set [2] concerns RpaB (Synechocystis sp. PCC 6803?). Nature of the data set: EMSA. To be noted: EMSA: 12 mM HEPES, 4 mM Tris, 12 mM KCl, 1 mM EDTA, 1 mM EGTA, 12% glycerol, 1 ug poly(dIdC); 3% agarose, 0.5x TBE; pH 8.2 or 5 tested; probe 3.85 pmol …. On the technique in general: In EMSA bound probe runs differently from free probe, usually more slowly.

In general, stoichiometry N refers to a count of units in the complex or per binding partner. As a reminder, the Kd is a measure of binding affinity in units of concentration. Lower therefore signals tighter binding.

Turning to “cyAbrB1 (Sll0359), N-terminally 6*His-tagged recombinant protein (natural protein)”, the stoichiometry N in data set [1] turned out to be 2. Consider “TTTGCCCAATTTGACAATATATTAAGAAATCCTCATCTAACCTGTTTTTCATTGGATAATTAAAACAAGAGGAAAGATCAGGGGGCAGGAAAATAAATTACCTAATACCTAGTCCTGGTTGATAAAACCAGAGGCAGAAAACCTCCCCGTTTTCTCAAACTTGCCCAAAAGACAACTGTTGAGTTTCCCCCATTGGGACGGAGGTTATG (double strand) [PatpT66-5'UTR]”, for which the Kd in data set [2] came out at 5.62 µM.
